Test system: immune cells
Test: Inducing activity for interferon-γ in immune cells
Type: cell-based
Conditions: IL-12 (positive control) with 40 ng/mL
Procedure: The herbal extract (prepared by Example 1) was added in T lymphocytes and natural killer cells (NK92) separated from peripheral blood. After 24 hours, the upper-layered solution was collected and the quantity of interferon thereof was measured by ELISA. […] The dosage effect appears in both the T lymphocytes and natural killer cells (NK92). The quantity of interferon-α induced by PC-IL-12 (positive control) and the herbal extract was measured in the same manner. […] Additionally, the quantity of interferon-α produced by inducing T lymphocytes by the herbal extract with 250-1,000 μg/mL was obvious, as shown in FIGS. 2B and 2C.
The inducing activity for interferon-γ of the herbal extract (prepared by Example 3) was tested.

B1: IL-12: IL-12 (positive control) with 40 ng/mL (protein, UniProt P29459 23-219; P29460 23-328, looked up)
Interleukin-12 subunit alpha: RNLPVATPDPGMFPCLHHSQNLLRAVSNMLQKARQTLEFYPCTSEEIDHEDITKDKTSTVEACLPLELTKNESCLNSRETSFITNGSCLASRKTSFMMALCLSSIYEDLKMYQVEFKTMNAKLLMDPKRQIFLDQNMLAVIDELMQALNFNSETVPQKSSLEEPDFYKTKIKLCILLHAFRIRAVTIDRVMSYLNAS
Interleukin-12 subunit beta: IWELKKDVYVVELDWYPDAPGEMVVLTCDTPEEDGITWTLDQSSEVLGSGKTLTIQVKEFGDAGQYTCHKGGEVLSHSLLLLHKKEDGIWSTDILKDQKEPKNKTFLRCEAKNYSGRFTCWWLTTISTDLTFSVKSSRGSSDPQGVTCGAATLSAERVRGDNKEYEYSVECQEDSACPAAEESLPIEVMVDAVHKLKYENYTSSFFIRDIIKPDPPKNLQLKPLKNSRQVEVSWEYPDTWSTPHSYFSLTFCVQVQGKSKREKKDRVFTDKTSATVICRKNASISVRAQDRYYSSSWSEWASVPCS
B1 gave an interferon-γ produced of 50 ± 2.04 pg/mL.

Source: US20090280200A1, “HERBAL EXTRACTS WHICH INDUCE IMMUNE CELLS TO PRODUCE INTERFERON AND ACTIVATE TOLL-LIKE RECEPTORS” (INDUSTRIAL TECHNOLOGY RESEARCH INSTITUTE, priority 2008, published 2009)
